Measurements taken from the DeepSol protein solubility set.

Experiment: soluble on expression in E. coli; label from the status in PepcDB or PDB records

Row | Sequence | soluble on expression in E. coli
1 | AHHHHHHGSITLELHPSEIARYFELEECSHYFSNLLLRKRGELQEFEPIIRRKEIETIELAKWGDEFELSLLQEFKKGEALKKLGVKELPRFYGFLTENDTPVRKFFEKYFKDGIIVEEDPDKLLEIINSEKSAVIYQAPLKGRIGKFDVSGRADFIIKVGKTLYLLEAKFTKEEKFYHRIQAIIYAHLLSQMIEGYEIKLAVVTKENFPIPSNFLRFPGDVEELKITLEEKLGGILREQELWIDARCTTCPFEALCLSKALEERSLGLLSLPPGIIRILKEEGIKDLKDMAKLFEFKENSPTNFEEPSIKDPKKTQEIAKRTGINLLKLSRIAQAILKYLDEGETTPLFIPRTGYNLPMDERVGDVEPSYYPPRSLVKVFFYVQTSPITDTIIGISALVKNRQNGERIIVKFVDEPPIEVSDAQEKERMLLIEFFRDVIDAVKSLSPTDKVYLHMYFYNRKQRDDLMDAVKRHKEIRENNAVMALLSLRRAIDWESFSIIKDEIIRRHALPLSPGLGFVTVATQFGYRWRRNKTFARMLEVVARRENGKINLKTLLNISETGIGPEYYPIIDRDNEGIPFTLFWSALVKLATEEDNSRIKRDIRDILSQMVEALKTIEERIPEQYKDAFVKKEGIPKEDLENFDIKKEELADILLEYLQLEFDARFRERSEYYRLPLSIRAYSEESALIKIENIEKKKNDCLLFGKIVLIDENGRIKEYNPKEVLIDIDEGSLVVVTPKKFLDKLRRDPVQRISKSPLGIVEAIDHETGKVVIRLIRVSPGRFTLKHSKFSCKNGLLTITYPEGEVKVTPGEIVIVDPSVDDIGMERAYNVLSEISQGELKHEIYQKVKAIYEGNTESRYEVNIWKKKHIEEFLSRVKKINEEQKKFAIDINNFLVTLQGPPGTGKTSGAIAPAILARAYSMVKDKKNGLFVVTGVSHRAVNEALIKTLKLKKELENTLKELRKIDLIRAVSGEEAIKIIKEELEREIKDDVDRIRFTAQEITHSSKQRSLDKYFANSGTVRIVFGTPQTLNKLMKNTKEVELVVIDEASMMDLPMFFLSTKVCKGQVLLVGDHRQMEPIQVHEWQLEDRKTFEEHYPFLSALNFIRFLRGELDERELKKFKRILGREPPEWKKDKNEVLPLYRLVRTYRLPQEIADLLSDAIYRADGIKLISEKKKRRKIIARHKDEFLSIVLDDRYPFVLILHDEGNSTKINELEAKIVEKIIKRVENIDIGVVVPYRAQKRLIASLIDSAQVDTVERFQGGEKSLIVISMTSSDPRIPGKGF | not soluble
2 | AHHHHHHGSKAVTFPVPWEYLKRIFEGKNVFVKPATLRVEEGMKVIFYASRENQGWHGEAEVERVEYYTSVEEIIKKYRDKLFLTPEELRRYERDRARWDSGRRKRPWMVLVLRNIEKYPRVVKPKKFIVVSGRYVDEKEYEEIRRSTS | not soluble
3 | AHHHHHHGSVERSKVRVLIAKPGLDGHDRGAKVVARALRDAGYEVIYTGIRQTPEQIVEAVIEEDVDVLGISILSGAHMVLIPKILKLLEEKGIKPGEDILVVAGGIIPPDDAEELKKMGVAEVFGPGTPLKTIIEFIDKNVEKLKKFRSST | soluble
4 | AHPELKSSVPQADSAVAAPEKIQLNFSENLTVKFSGAKLTMTGMKGMSSHSPMPVAAKVAPGADPKSMVIIPREPLPAGTYRVDWRAVSSDTHPITGNYTFTVK | soluble
5 | AIAADTVDGKKEEADYKRLHNFPLIRHTDMPEEMRVETMELCVTACEKFATNNESAAKMIKESMDKKFGSSWHVVIGEGFGFEITHEVKNLLYMFFGGSLAVCVWKCS | soluble
6 | AIADAFEHENRYVHAVYEAIGDHFSATRYRTWPRVQAFLEQLAHEALVLDSGAGNGKYALPVLRQHGYYIAADRCRRLLLRARWQSDALEAQETALLPVECVQADCLFLPFRSGVFDVALSIAVIHHVATARRRVGAVVELGRVLRPTGHALVYVWALRAIPLKLRSRAQSTMDGYLLPWHHKRSTGADALPQKKSDSPSQTYFRFYHLFEEDELRMLVEEANAVSKEGAATTWTLRITGETFDHQNYVVEFQRQNIHALLEDAADNILHPSI | soluble
7 | AIAELFTLGACRQVGKSCFVLKTSEGLVMLDCGLHPSYQDDRRYPNFSLAFSYGPLKAVFITHCHADHVGALPILTERWGYDGPIYMSEPTRKLSYYILEECVGSWGGDDEWTDSSRSEWSYTQREVESCLTKVTIMEPGQSISVGENVQVHSWMAGHVLGAYMFSIVVDNHRILYTGDFTSCPTFHLPPARVDDIPYPPDVILSEATYATSFKDGRLNNQVEFIQNVLDCLLDGGKVLVPVFAIGRAQELLLLLGK | soluble
8 | AIAFKRKTAWFSDSVEKEVISFWVSEGGDISSWKTAGYLFSDDASSEDTKRIYGSEDYVKNRATVFHSSFLLACQPRQSVTSVPIGHYVLPPDFVQNEMKAIIGRFIWEKDEQVICEEQINPEVPKDILSGETEDHALRERSSQDDYQTVTSQSKVCSCCEMRQYPVNNMISGYVHIDQMRKYSGELKDFLPSLHGHDVSRSNDPTPPFHRKAV | soluble
9 | AIAMQISDTYNQKHSLFNAMNRFIGAVNNMDQTVMVPSLLRDVPLDMEVKDEVHNTIGATNYFSRTDMHGYYILLKSIRNDIEWGVVQGEDRKKDKLSNMEISRLEDGDGEEDLEKQFHYHLSGLHTVLNKLTRKAHILTNRYKEEIGFGSWGH | soluble
10 | AIARSEWPFDYASEADAMLHRITPENFEKLVRFAARLLRVGEIIALPTDTVYGLAAAARNSHGIELLYQTKQRDLRKPLAIAVPSVEDVSVYLHTEHLPPGLLEAILPGPLTLLLRQREDYVGIDLQDVRIDQYRGWERAKRLAPNLNLRRDGLLGVRVPDASFACAVSRELGDPLALTSANVSGRGDCGSVDEFRALWSACAAVFDGGAMPKPVMPSTVVDLSVPGTFRITRAGWMATDLVRILENKFGLTNKSANTSN | soluble
11 | AIASERLYYFVIVGRDDRVLYDLLYPASLSELDWRTSSELSSPAERGDFEPHHFIPSIQVLLQFVAYSALDHIEEKYWLTSARSLKHIFRFRDWSASVQLTPNAATRFVLVHGASDDASRNVRAFLHAVYEAYVPHVVCNPFQEEDAPITSKRFHEVAKNLAKRYFSG | soluble
12 | AIPLTLFYKFTYPIIVAFNKSTDLVLKLFGIKQVDEHEEAHTDEEIRMLVEESYKHGLIDKTELTFVDNVFDFSEKTVKEIMVPRTDMKCIFVEDSFDDIVGVTIDEHFTRYPVCEESKDNIIGLIHIKDLYKLKINKEDEKIESIIREIKFVPESMSISELFRMFQKERMQMAIVIDEYGGTFGLVTIEDILEEIVGEIQ | not soluble
13 | AIYHLTAKTGSRSGGQSARAKADYIQREGKYARDMDEVLHAESGHMPEFVERPADYWDAADLYERANGRLFKEVEFALPVELTLDQQKALASEFAQHLTGAERLPYTLAIHAGGGENPHCHLMISERINDGIERPAAQWFKRYNGKTPEKGGAQKTEALKPKAWLEQTREAWADHANRALERAGH | soluble
14 | AKDAVLSVDGIIVARSSNEITDLIPGATLALSGKTTDPATLSVSRDTQLAEAAMTYMVEELNATMKLLGELTRRSTDGSGSGELAGDRVVETLKRQVTALIGQPLTGHGEKPVYLSQLGVSTNRDGSLSFNASAFQKAFEKTPQIFDAMFTDSLTAITPGASIAGKAASSAASGDYIFRLDPVTGEATVGGGATLALPGANGASQYLVLSGGLAGVMVSVESGVTDATLRFGRSFATQLQALLDTAAGQNGAISDREGQIGKVAEEQAKVIEALDARAAKLESRYLAQFTAMEQAVSRMKSTGTYLENLISAWNKD | not soluble
15 | AMGVPCVEDEDFIQALDKMMLENLQQRSGESVKVHQLDVAIPLHLKSQLRKGPPLGGGEGEAESADTMPFVMLTRKGNKQQFKILNVPMSSQLAANH | soluble
16 | AMMIGIIGAMEEEVTILKNKLTQLSEISVAHVKFYTGILKDREVVITQSGIGKVNAAISTTLLINKFKPDVIINTGSAGALDESLNVGDVLISDDVKYHDADATAFGYEYGQIPQMPVAFQSSKPLIEKVSQVVQQQQLTAKVGLIVSGDSFIGSVEQRQKIKKAFPNAMAVEMEATAIAQTCYQFNVPFVVVRAVSDLANGEAEMSFEAFLEKAAVSSSQTVEALVSQL | soluble
17 | ANCAVCDSPGDLLDQFFCTTCGQHYHGMCLDIAVTPLKRAGWQCPECKVCQNCKQSGEDSKMLVCDTCDKGYHTFCLQPVMKSVPTNGWKCKNCRICI | soluble
18 | ANCSIMIDEIIHHLKRPPNPLLDPNNLNSEDMDILMERNLRTPNLLAFVRAVKHLENASAIESILKNLLPCLPLATAAPTRHPIHIKDGDWNEFRRKLTFYLKTLENAQAQQ | soluble
19 | ANRHPAKVVSTRYFPQARVMELVLAPSNNGQGKPWQGHKAGQFAYVRFGNEDPHPFTIVSGEHEPEVRFLIKELGDFTTDLYHRVKIGEEVMVEGPYGRLA | not soluble
20 | ANSFLEEMKKGHLERECMEETCSYEEAREVFEDSDKTNEFWNKYKDGDQCETSPCQNQGKCKDGLGEYTCTCLEGFEGKNCELFTRKLCSLDNGDCDQFCHEEQNSVVCSCARGYTLADNGKACIPTGPYPCGKQTLE | soluble
21 | APLAHCDGRGGLKLSQDMDTCEDILPCVPFSVAKSVKSLYLGRMFSGTPVIRLRFKRLQPTRLVAEFDFRTFDPEGILLFAGGHQDSTWIVLALRAGRLELQLRYNGVGRVTSSGPVINHGMWQTISVEELARNLVIKVNRDAVMKIAVAGDLFQPERGLYHLNLTVGGIPFHEKDLVQPINPRLDGCMRSWNWLNGEDTTIQETVKVNTRMQCFSVTERGSFYPGSGFAFYSLDYMRTPLDVGTESTWEVEVVAHIRPAADTGVLFALWAPDLRAVPLSVALVDYHSTKKLKKQLVVLAVEHTALALMEIKVCDGQEHVVTVSLRDGEATLEVDGTRGQSEVSAAQLQERLAVLERHLRSPVLTFAGGLPDVPVTSAPVTAFYRGCMTLEVNRRLLDLDEAAYKHSDITAHSCPPVEPAAA | soluble
22 | APQVVDKVAAVVNNGVVLESDVDGLMQSVKLNAAQARQQLPDDATLRHQIMERLIMDQIILQMGQKMGVKISDEQLDQAIANIAKQNNMTLDQMRSRLAYDGLNYNTYRNQIRKEMIISEVRNNEVRRRITILPQEVESLAQQVGNQNDASTELNLSHILIPLPENPTSDQVNEAESQARAIVDQARNGADFGKLAIAHSADQQALNGGQMGWGRIQELPGIFAQALSTAKKGDIVGPIRSGVGFHILKVNDLRGESKNISAAQKDRAYRMLMNRKFSEEAASWMQEQRASAYVKILSN | soluble
23 | AQPKETILSIKDLVVKESRGLDAVKNLSLDVRAGEVVGIAGIDGNGQTELIQALAGLTKVENGSIHLNEKEITNRKPREITEMGVAHVPEDRHKYGLVLEMTLAENIGLQTYYQKPYSSTGILNYRMINKHARELIEEYDVRTPNELVPARALSGGNQQKAIIAREVDRDPDLLIVSQPTRGLDVGAIEYIHRRLIEQRDKNKAVLLVSFELDEILNVSDRIAVIHAGEIVGIVDPKETTENELGLLMAGYSLEEARAELSKVEAGETVE | not soluble
24 | AQQAEWRSWEVNKRLEYSLVKGITEFIEQDTEEARQQATRPCEVIEGPLMDGMNVVGDLFGEGKMFLPQVVKSARVMKQAVAYLEPFIEASKEQCKTNGKMVIATVKGDVHDIGKNIVGVVLQCNNYEIVDLGVMVPAEKILRTAKEVNADLIGLSGLITPSLDEMVNVAKEMERQGFTIPLLIGGATTSKAHTAVKIEQNYSGPTVYVQNASRTVGVVAALLSDTQRDDFVARTRKEYETVRIQHGRKKPRTPPVTLEAARDNDFAFDWQAYTPPVAHRLGVQEVEASIETLRNYIDWTPFFMTWSLAGKYPRILEDEVVGVEAQRLFKDANDMLDKLSAEKTLNPRGVVGLFPANRVGDDIEIYRDETRTHVINVSHHLRQQTEKTGFANYCLADFVAPKLSGKADYIGAFAVTGGLEEDALADAFEAQHDDYNKIMVKALADRLAEAFAEYLHERVRKVYWGYAPNENLSNEELIRENYQGIRPAPGYPACPEHTEKATIWELLEVEKHTGMKLTESFAMWPGASVSGWYFSHPDSKYYAVAQIQRDQVEDYARRKGMSVTEVERWLAPNLGYDAD | soluble
